Biological target: West Nile virus (Kunjin subtype, strain MRM61C) core (C) protein, trypsin-cleaved fragment Val23-Arg98 (Kunjin virus (strain MRM61C))
Test: crystal structure

West Nile virus (Kunjin subtype, strain MRM61C) core (C) protein, trypsin-cleaved fragment Val23-Arg98 (domain or fragment)
stoichiometry N: 4

From PMC7173237
